# Measurements taken from patent US20210253725A1 (BIONTECH, published 2021).
# Residue numbers refer to the chain shown, from its start. Names may count otherwise.
# B1: P018.S.10.A.F05 (antibody, V domains shown)
# VH: QSVEESGGRLVTPGTPLTLTCTVSGFSLSGYHMCWVRQAPGKGLQYIGIIGSNGVTYYASWAKSRSTITRNTNENTVTLKMTSLTTEDTATYFCARSSGWGARFNLWGQGTLVTVSS
# VL: AQVLTQTPASVSAAVGGTVTINCQASQSVYNDNELSWYQQKPGQPPKLLIYKASTLTSGVPLRFSGSGSGTQFTLTISDVQSDDAATYYCLGGGSTPSDSTFGGGTEVVVK
# notes: V regions on human Ig constant parts; also called AB27_181
# B2: P018.S.10.A.A06 (antibody, V domains shown)
# VH: B1 VH with V55N
# VL: B1 VL with A9S, V29I, T57A, D84V, S95M, S100T
# notes: V regions on human Ig constant parts; also called AB27_165
# B3: P018.S.10.A.G03 (antibody, V domains shown)
# VH: B1 VH with S27T, L28I, G30S, V55N
# VL: B1 VL with A9S
# notes: V regions on human Ig constant parts; also called AB27_182
# B4: P018.S.10.A.E01 (antibody, V domains shown)
# VH: QEQLVESGGGLVQPEGSLTLTCTATGIDFSTNYRSCWVRQAPGKGLEWIACIDTDDSDSTYYASWAKGRFTISKTSSTTVTLQMTSLTAADTATYFCTRAYTTSDYAWSFYLWGPGTLVTVSS
# VL: DLVMTQTPASVEAAVGGTVTIKCQTSQSISKFLNWYQQTPGQPPKLLIYRASTLESGVPSRFEGSGSGTEFTLTISDLESADAATYYCQCTYGGTSGSVWAFGGGTEVVVK
# notes: V regions on human Ig constant parts; also called AB27_175
# B5: P018.S.10.A.F01 (antibody, V domains shown)
# VH: QSLEESGGGLVQPEGSLTLTCTASGFSFSSSDYMCWVRQAPGKGLEWIACMYTGSVEHTYYANWAEGRFTISKTSSTTVTLQMTSLTAADTATYFCARSPTGYPDYGYGGFSLWGPGTLVTVSS
# VL: ALVMTQTPSSVSAAVGGTVTINCQASQNIYSNLAWYQQKSGQRPKLLIHGASNLESGVPSRFKGSGSGTEFTLTISDLESADAATYYCQSAYYSGGPDMAFGGGTEVVVK
# notes: V regions on human Ig constant parts; also called AB27_179
# B6: P018.S.05.A.A04 (antibody, V domains shown)
# VH: QEQLVESGGDLVKPGASLTLTCTASGIDFSSSYYMSWVRQAPGKGLEWIACIDTVDDYTYYASWAKGRFTISKTSSTTVSLQMTSLTAADTATYFCARERIDNNTDCFDLWGPGTLVTISS
# VL: AQVLTQTPSPVSAAVGGTVTISCQSSQSVVSKNRLAWYQQKPGQPPKLLIWLASKLASGVPSRFRGSGSGTQFTLTISGVQSDDAATYYCQGYYSGAIYAFGGGTDVVVK
# notes: V regions on human Ig constant parts; also called AB27_81
# B7: P018.S.10.A.C06 (antibody, V domains shown)
# VH: QSLEESGGRLVTPGTPLTLTCTVSGIDLNNNAMTWVRQAPGEGLEWIGIISTADTTTYASWTKGRFTISKTSTTVDLKITSPTTEDTATYFCARAAYFSYGYFNLWGQGTLVTVSS
# VL: DIVMTQTPASVEAAVGGTVTIKCQASQNIGNALAWYQQKPGQPPKLLIYGASTLASGVPSRFKGSGSGTEFTLTISDLESADATTYFCQSYVYSDGNVFGGGTEVVVK
# notes: V regions on human Ig constant parts; also called AB27_174
# B8: P018.S.06.A.E02 (antibody, V domains shown)
# VH: B7 VH with T57S
# VL: B7 VL with P40S
# notes: V regions on human Ig constant parts; also called AB27_105
# B9: P018.S.05.A.A02 (antibody, V domains shown)
# VH: QSLEESGGRLVTPGTPLTLICTASGIDLSSYGMTWVRQAPGKGLEWIGIISTIGDTYYASWVKGRFTISKTSTTVDLKITSPTTEDTATYFCARYTNSGYAMMYYFNLWGQGTLVTVSS
# VL: DIVMTQTPASVEAAVGGTVTIKCQASQNIVNALAWYQQKLGQPPKLLIYVASYLASGVPSRFKGSGSGTEFTLTISDLESVDAATYYCQSYYYSSGTSYGQNAFGGGTEVVVK
# notes: V regions on human Ig constant parts; also called AB27_80
# B10: P018.S.09.A.E06 (antibody, V domains shown)
# VH: QSVEESGGRLVTPGTPLTLTCTVSGFSLSSYGMIWVRQAPGKGLEWIAWSSSNDNTYYASWAKGRFTISKTSSTTVDLKMTSLTTEDTATYFCARNGVYSTGNYFDLWGQGTLVTVSS
# VL: AQVLTQTPSPVSAAVGGTVTINCQASQSVYNNNNLAWYQQKPGQPPKFLIYAASRLPSGVPPRFSGSGSGTQFTLTISDVQSDDAATYYCQGEFDCDSADCFAFGGGTEVVVK
# notes: V regions on human Ig constant parts; also called AB27_156
# B11: P018.S.01.A.C06 (antibody, V domains shown)
# VH: QSVEESGGRLVTPGTPLTLTCTVSGIDLNNYVMGWVRQAPGKGLEWIGIINTAGSTYYANWAKGRFTISKTSTTVDLKITSPTTEDTATYFCARDSSYYIGYYFNLWGPGTLVTVSS
# VL: QIVMTQTPASVEVAVGGTVTIKCQASQSIGSNLAWYQQKPGQPPKLLIYDASDLESGVPSRFKGSGSGAQFTLTISDLESADAATYYCQQGYSATTNVDNAFGGGTEVVVK
# notes: V regions on human Ig constant parts; also called AB27_10
# B12: P018.S.01.A.B03 (antibody, V domains shown)
# VH: QSLEESGGRLVTPGTPLTLTCTVSGFSLSSNAMSWVRQAPGEGLEWIGTIYTHGSSYYATWAKGRFTISKTSSTTVDLKMTSLTTEDTATYFCAGWAGGLSLWGPGTLVTVSS
# VL: DVVMTQTPASVSEPVGGTVTIKCQASEDIDNALAWYQQKPGQAPKILIYSASTLPSGVPSRFKGSGSGTQFTLTISDLESADAATYYCQSAYGGTYGDGFGGGTEVVVK
# notes: V regions on human Ig constant parts; also called AB27_4
# B13: P018.S.01.A.H02 (antibody, V domains shown)
# VH: QSVEESGGRLVTPGTPLTLTCTASGFSLSSYHMQWVRQAPGKGLEWIGIIYAGSGNTWYASWAKGRFTISKTSTTVDLKITSPTTEDTAAYFCARQPGGDASDTQLDLWGQGTLVTVSS
# VL: AAVLTQTASPVSAAVGGTVTINCQSSQSVFDHNQLSWFQHKPGQSPKLLIYRASTLASGVPSRFKGSGSGTQFTLTISDVQSDDAATYYCLGGYSSSSDTVFGGGTEVVVK
# notes: V regions on human Ig constant parts; also called AB27_25
# B14: P018.S.07.A.C02 (antibody, V domains shown)
# VH: B13 VH with Q34C, A90T, D100G
# VL: B13 VL with A8P, H32N, V80L, Q81E, K111E
# notes: V regions on human Ig constant parts; also called AB27_119
# Biological target: T1, CD27 expressed on the cell surface (HT1080_CD27 cells) (human, UniProt P26842 20-260)
# T1 sequence (looked up): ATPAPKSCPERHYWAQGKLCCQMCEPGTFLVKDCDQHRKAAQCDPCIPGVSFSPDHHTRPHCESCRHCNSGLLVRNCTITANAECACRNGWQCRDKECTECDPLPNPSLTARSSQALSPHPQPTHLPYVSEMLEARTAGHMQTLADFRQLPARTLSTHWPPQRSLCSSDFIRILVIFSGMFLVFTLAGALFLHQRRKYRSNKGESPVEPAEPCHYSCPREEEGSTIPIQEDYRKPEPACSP
# Assay: cell-based or functional assay
# Also: test concentration or dose not given here.
Binder,"IL-8, cross-linked by F(ab')2 fragment [abs. corr.]",IL-8 [abs. corr.]
B1,1.34,0.267
B2,1.12,-0.13
B3,1.3,-0.18
B4,2.54,0.257
B5,1.05,-0.011
B6,1.37,0.226
B7,1.18,0.28
B8,1.22,0.582
B9,1.53,0.212
B10,1.73,1.23
B11,1.79,0.325
B12,1.7,0.06
B13,2.54,0.3
B14,2.02,0.735

# Biological target: T2, CD27 protein (His-tagged, Sino Biological Inc. 10039-H08B1) (human, UniProt P26842 20-192)
# T2 construct: bought; coated onto ELISA plates; also called human CD27; recombinant protein; not shown: His tag
# T2 sequence (looked up): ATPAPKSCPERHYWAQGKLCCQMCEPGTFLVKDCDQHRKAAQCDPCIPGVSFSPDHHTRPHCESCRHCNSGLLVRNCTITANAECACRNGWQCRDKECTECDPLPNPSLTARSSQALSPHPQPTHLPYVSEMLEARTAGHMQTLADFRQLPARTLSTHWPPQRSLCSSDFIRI
# Assay: ELISA on coated His-tagged CD27
row,Binder,ELISA [abs. corr.]
1,B1,3.49
2,B2,3.18
3,B3,3.31
4,B4,3.3
5,B5,3.31
6,B6,3.3
7,B7,3.39
8,B8,3.3
9,B9,3.3
10,B10,3.54
11,B11,3.3
12,B12,3.3
13,B13,3.3
14,B14,3.13

# Biological target: T1, CD27 expressed on the cell surface …
# Assay: cellular binding assay, HT1080_CD27 cells
row,Binder,Cellular binding assay [RFU]
1,B1,335
2,B2,414
3,B3,386
4,B4,227
5,B5,329
6,B6,369
7,B7,395
8,B8,357
9,B9,334
10,B10,307
11,B11,369
12,B12,387
13,B13,317
14,B14,380
